Laboratory results published in PMC4989220, “The role of Rab6a and phosphorylation of non-muscle myosin IIA tailpiece in alcohol-induced Golgi disorganization” (Scientific Reports, 2016).

Target: the molecule itself
Experiment: Western blot of Golgi membrane fraction (dimer band); Rab6a Western blot of the Golgi fraction (sucrose gradient) from control VA-13 cells and hepatocytes from control rats

B1: Rab6a GTPase (natural protein, UniProt P20340 1-208, looked up)
chain: MSTGGDFGNPLRKFKLVFLGEQSVGKTSLITRFMYDSFDNTYQATIGIDFLSKTMYLEDRTVRLQLWDTAGQERFRSLIPSYIRDSTVAVVVYDITNVNSFQQTTKWIDDVRTERGSDVIIMLVGNKTDLADKRQVSIEEGERKAKELNVMFIETSAKAGYNVKQLFRRVAAALPGMESTQDRSREDMIDIKLEKPQEQPVSEGGCSC
notes: Rab6a GTPase, endogenous in VA-13 cells (HepG2 cells expressing ADH); source: endogenous, VA-13 cells (lysate, Golgi fraction, fixed cells)
Question: With B1 as the protein, how does the “stoichiometry N” value read?
Answer: The value was 2.

B2: Rab6a GTPase (rat hepatocytes) (natural protein, rat (endogenous in primary hepatocytes), UniProt Q9WVB1 1-208, looked up)
chain: MSAGGDFGNPLRKFKLVFLGEQSVGKTSLITRFMYDSFDNTYQATIGIDFLSKTMYLEDRTVRLQLWDTAGQERFRSLIPSYIRDSTVAVVVYDITNVNSFQQTTKWIDDVRTERGSDVIIMLVGNKTDLADKRQVSIEEGERKAKELNVMFIETSAKAGYNVKQLFRRVAAALPGMESTQDRSREDMIDIKLEKPQEQPVNEGGCSC
notes: Rab6a, endogenous in hepatocytes of male Wistar rats; source: endogenous, primary rat hepatocytes (fixed cells, Golgi fraction)
Question: Which “stoichiometry N” value does the source give for B2 here?
Answer: The value was 2.
